In patent publication US20240301071A1:
Each block holds one binder with its values, some of them ahead of it.

Columns and labels:
[1] = molecular target: T1, human SIRPA on human macrophages (primary monocyte-derived macrophages; U937 line) (human), P78324
SIRPB1-Fc iso. 3 (human) = SIRPB1-Fc iso. 3 (human) (UniProt Q5TFQ8); test: ELISA, plate coated with SIRP protein
[2] = molecular target: SIRPB1-His iso. 3 (human) (UniProt Q5TFQ8); test: ELISA, plate coated with SIRP protein
[3] = molecular target: SIRPA v2 (CAA71403.1) (human) (UniProt P78324); test: ELISA, plate coated with SIRP protein
[4] = molecular target: huSIPRA v.1 CAA71403.1 (human) (UniProt P78324); test: ELISA, plate coated with tagged SIRPA at 1 ug/mL
[5] = molecular target: T1, human SIRPA on human macrophages …; test: cell-based or functional assay
[6] = molecular target: human SIRPA on human macrophages (primary monocyte-derived macrophages; U937 line) (human) (UniProt P78324); test: cell-based or functional assay
human SIRPA on human macrophages (primary monocyte-derived macrophages; U937 line) (human), sequence (P78324 31-504): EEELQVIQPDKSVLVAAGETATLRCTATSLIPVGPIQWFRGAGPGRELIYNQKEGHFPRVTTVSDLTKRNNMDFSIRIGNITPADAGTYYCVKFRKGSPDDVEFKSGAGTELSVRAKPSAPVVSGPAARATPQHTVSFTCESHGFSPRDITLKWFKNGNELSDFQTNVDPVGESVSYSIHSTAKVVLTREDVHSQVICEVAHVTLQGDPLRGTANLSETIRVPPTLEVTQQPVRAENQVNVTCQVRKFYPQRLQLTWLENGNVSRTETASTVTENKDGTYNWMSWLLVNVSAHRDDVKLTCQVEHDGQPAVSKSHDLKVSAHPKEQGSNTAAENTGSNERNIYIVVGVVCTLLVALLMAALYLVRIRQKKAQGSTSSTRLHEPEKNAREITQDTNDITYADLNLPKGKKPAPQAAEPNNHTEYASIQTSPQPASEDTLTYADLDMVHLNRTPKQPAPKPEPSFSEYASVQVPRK

T1 sequence (P78324 31-504): as above
SIRPB1-Fc iso. 3 (human), sequence (Q5TFQ8 30-371): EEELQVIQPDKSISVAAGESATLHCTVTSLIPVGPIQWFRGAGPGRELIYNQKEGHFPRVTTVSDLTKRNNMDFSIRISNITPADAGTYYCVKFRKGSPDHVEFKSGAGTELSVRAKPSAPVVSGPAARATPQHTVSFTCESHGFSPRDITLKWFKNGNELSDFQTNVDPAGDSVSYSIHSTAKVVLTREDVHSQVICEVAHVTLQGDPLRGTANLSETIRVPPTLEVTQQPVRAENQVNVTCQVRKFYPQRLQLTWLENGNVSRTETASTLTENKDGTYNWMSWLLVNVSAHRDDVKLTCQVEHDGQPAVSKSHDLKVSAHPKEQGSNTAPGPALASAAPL
SIRPB1-His iso. 3 (human), sequence (Q5TFQ8 30-371): as above

B1: mouse anti-SIRPA antibody m3F9 (antibody, mouse IgG1, V domains shown)
VH: EVKLVESGGGLVKPGGSLKLSCAASGFTFSSYAMSWVRQTPEKRLEWVATISDYGGSYTYYPDSVKGRFTISRDNAKYTLYLQMSSLRSEDTALYYCARPPYDDYYGGFAYWGQGTLVTVSA
VL: DIVLTQSPASLAVSLGQRATISCRASKSVSSSGYSYMHWYQQKPGQPPKLLIYLASNLESGVPARFSGSGSGTDFTLNIHPVEEEDAATYYCQHNRELPCTFGGGTKLEIK
IC50 (read off the curve), SIRPA downregulation on primary human macrophages, Dnr. 414 [1]: 0.04 nM | EC50 (SIRPB1-Fc iso. 3 (human)): 0.319 nM | EC50 [2]: 0.435 nM | EC50 [3]: 0.353 nM | EC50 [4]: 0.789 nM | Phagocytosis, fold increase over baseline activity [5]: 1.51 fold | SIRPA IC50 (nM), downregulation on U937 cells [5]: 0.105 nM | SIRPA IC50 (nM), downregulation on human primary macrophages [5]: 0.00905 nM | SIRPA Max % DR, U937 cells [5]: 75% | SIRPA Max % DR, human primary macrophages [5]: 89% | SIRPA downregulation on primary human macrophages, Donor 413 (flow cytometry) [5]: 90% | SIRPA downregulation on primary human macrophages, Donor 414 (flow cytometry) [5]: 85%

B3: deglycosylated m3F9 anti-SIRPA antibody (antibody, mouse IgG1, V domains shown)
VH: B1 VH
VL: B1 VL
modifications: here or on the partner: Fc glycan on Asn297 removed enzymatically with EndoS
IC50 (read off the curve), SIRPA downregulation on primary human macrophages, Dnr. 413 [1]: 0.07 nM | SIRPA downregulation on primary human macrophages, Donor 413 (flow cytometry) [5]: 70% | SIRPA downregulation on primary human macrophages, Donor 414 (flow cytometry) [5]: 75%

B4: anti-SIRPA antibody 9C2 (antibody, V domains shown)
VH: EFQLQQSGAELVKPGASVKISCKASGYSLTGYNMNWVKQSRGKSLEWIGNINPHYGSSTYNQNFKDKATLTVDKSSSAAYMQFNSLTSEDSAVYYCAREGYDGVFDYWGQGTTLTVSS
VL: QIVLSQSPAILSASPGEKVTMTCRASSSVSYMHWYQQKPGSSPKPWIYVTSNLASGVPTRFSGSGSGTSYSLTISRVEAEDAATYYCQQWSSNPRTFGGGTKLEIK
EC50 (SIRPB1-Fc iso. 3 (human)): 0.382 nM | EC50 [2]: 0.425 nM | EC50 [3]: 0.358 nM

Further lines, results first:

Phagocytosis, fold increase over baseline activity [5]: 1.77 fold | SIRPA IC50 (nM), downregulation on U937 cells [5]: 0.804 nM | SIRPA IC50 (nM), downregulation on human primary macrophages [5]: 0.172 nM | SIRPA Max % DR, U937 cells [5]: 68% | SIRPA Max % DR, human primary macrophages [5]: 90%
B2: chimeric anti-SIRPA antibody 3F9 huIgG1 (antibody, V domains shown)
VH: B1 VH
VL: B1 VL

EC50 (nM), phagocytosis of A375 cells by primary human macrophages [6]: 2.15 nM | Max, fold increase in phagocytosis over baseline activity [6]: 1.06 fold
B5: anti-SIRPA antibody 18D5 (antibody, from another filing, V domains shown)
VH: QVQLQQPGAELVRPGSSVKLSCKASGYTFTSYWVHWVKQRPIQGLEWIGNIDPSDSDTHYNQKFKDKASLTVDKSSSTAYMQLSSLTFEDSAVYYCVRGGTGTMAWFAYWGQGTLVTVSA
VL: DVVMTQTPLSLPVSLGDQASISCRSSQSLVHSYGNTYLYWYLQKPGQSPKLLIYRVSNRFSGVPDRFSGSGSGTDFTLKISRVEAEDLGVYFCFQGTHVPYTFGSGTKLEIKR
